Laboratory results from patent US20240343802A1 (Zymeworks, published 2024).
Residue numbers refer to the chain shown, from its start. Names and notes keep the numbering of the source. Read-outs that look alike come from different tables or passages of the source.

Legend:
[1] = target: T1, CD32aWT (UniProt P12318 36-218); assay: SPR, antibody captured, FcγR injected
T1 construct: also called CS32a
T1 sequence (looked up): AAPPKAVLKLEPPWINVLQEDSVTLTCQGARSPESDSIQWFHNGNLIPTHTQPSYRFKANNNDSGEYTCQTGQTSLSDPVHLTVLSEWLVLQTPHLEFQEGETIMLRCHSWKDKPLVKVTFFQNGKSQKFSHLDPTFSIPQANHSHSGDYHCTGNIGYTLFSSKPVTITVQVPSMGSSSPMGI

[2] = target: T2, CD32bWT (UniProt P31994 43-217); assay: SPR, antibody captured, FcγR injected
T2 sequence (looked up): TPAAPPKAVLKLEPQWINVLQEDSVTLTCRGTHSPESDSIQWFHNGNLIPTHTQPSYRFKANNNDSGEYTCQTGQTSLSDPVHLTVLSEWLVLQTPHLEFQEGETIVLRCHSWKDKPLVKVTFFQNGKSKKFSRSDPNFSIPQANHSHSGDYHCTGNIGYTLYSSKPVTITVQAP

[3] = target: T3, CD19 on CD19-expressing Raji B cells (human, UniProt P15391 20-556); assay: FACS, Raji cells
T3 construct: whole, on cells
T3 sequence (looked up): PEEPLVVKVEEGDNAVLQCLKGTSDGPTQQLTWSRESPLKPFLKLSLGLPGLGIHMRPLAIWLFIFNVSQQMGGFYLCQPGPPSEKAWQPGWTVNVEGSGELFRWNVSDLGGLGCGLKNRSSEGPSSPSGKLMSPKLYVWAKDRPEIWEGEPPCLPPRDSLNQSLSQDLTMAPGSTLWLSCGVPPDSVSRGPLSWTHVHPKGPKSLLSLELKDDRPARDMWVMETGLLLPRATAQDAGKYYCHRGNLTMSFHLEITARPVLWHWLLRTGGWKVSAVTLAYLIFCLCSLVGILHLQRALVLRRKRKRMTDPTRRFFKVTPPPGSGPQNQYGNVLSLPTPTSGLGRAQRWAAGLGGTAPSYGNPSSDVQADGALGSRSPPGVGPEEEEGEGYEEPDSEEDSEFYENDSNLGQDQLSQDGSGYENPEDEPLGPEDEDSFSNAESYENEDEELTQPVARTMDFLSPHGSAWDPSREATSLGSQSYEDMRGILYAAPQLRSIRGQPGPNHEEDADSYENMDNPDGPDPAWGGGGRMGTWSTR

[4] = target: T4, CD3 on CD3-expressing T cells (Jurkat, HPB-ALL) (UniProt P07766 23-207); assay: whole cell binding by FACS on CD3-expressing Jurkat T cells; concentration not shown
T4 construct: whole, on cells; A multi-chain complex on cells; also called CD3 complex

[5] = target: T5, cynomologous CD3 receptor antigen (coated, ELISA) (cynomolgus [Macaca fascicularis], UniProt Q95LI5 22-117); assay: ELISA on coated cynomolgus CD3 receptor antigen ('Cyno-CD3-HEK'), anti-human Fcgamma specific secondary antibody, TMB, OD450
T5 sequence (looked up): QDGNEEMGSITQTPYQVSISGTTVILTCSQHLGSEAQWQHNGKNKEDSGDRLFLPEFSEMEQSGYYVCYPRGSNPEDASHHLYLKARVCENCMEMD

[6] = target: CD16aWT (UniProt P08637 17-208); assay: SPR, antibody captured, FcγR injected
[7] = target: T4, CD3 on CD3-expressing T cells (Jurkat, …); assay: FACS, HPB-ALL cells
[8] = target: T6, mouse CD19 on Mouse spleen cells (mouse, UniProt P25918); assay: FACS on freshly isolated mouse spleen cells, Mean RFU normalized to human IgG
T6 construct: on the surface of freshly isolated mouse spleen cells
T6 sequence (CD19 on the cell surface, looked up): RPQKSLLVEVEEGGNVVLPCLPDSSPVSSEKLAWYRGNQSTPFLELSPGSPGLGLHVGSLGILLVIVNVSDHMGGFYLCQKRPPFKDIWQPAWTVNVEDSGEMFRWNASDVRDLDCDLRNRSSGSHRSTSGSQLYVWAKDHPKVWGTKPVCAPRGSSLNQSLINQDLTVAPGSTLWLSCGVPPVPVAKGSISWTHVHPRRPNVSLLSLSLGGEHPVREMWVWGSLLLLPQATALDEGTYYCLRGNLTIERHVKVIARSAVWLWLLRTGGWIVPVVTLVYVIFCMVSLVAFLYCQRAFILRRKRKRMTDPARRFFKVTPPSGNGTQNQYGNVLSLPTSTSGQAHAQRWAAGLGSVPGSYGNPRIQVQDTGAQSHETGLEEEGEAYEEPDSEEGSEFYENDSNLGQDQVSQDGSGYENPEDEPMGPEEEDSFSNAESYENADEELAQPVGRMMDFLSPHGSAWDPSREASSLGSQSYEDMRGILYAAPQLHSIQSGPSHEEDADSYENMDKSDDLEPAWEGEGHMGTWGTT

[9] = target: T4, CD3 on CD3-expressing T cells (Jurkat, …); assay: FACS, Jurkat cells
[10] = target: T4, CD3 on CD3-expressing T cells (Jurkat, …); assay: FACS, HBP-ALL T cells
[11] = target: T3, CD19 on CD19-expressing Raji B cells; assay: whole cell binding by FACS on Raji B cells, RFU against concentration (nM, log axis)
[12] = target: T3, CD19 on CD19-expressing Raji B cells; assay: FACS, Raji cells; remark: listed apart in the source

B1: v1379, anti-CD19 BiTE (VL-VH) scFv / anti-CD3 BiTE (VH-VL) scFv heterodimeric Fc (bispecific antibody)
chain 1: DIQLTQSPASLAVSLGQRATISCKASQSVDYDGDSYLNWYQQIPGQPPKLLIYDASNLVSGIPPRFSGSGSGTDFTLNIHPVEKVDAATYHCQQSTEDPWTFGGGTKLEIKGGGGSGGGGSGGGGSQVQLQQSGAELVRPGSSVKISCKASGYAFSSYWMNWVKQRPGQGLEWIGQIWPGDGDTNYNGKFKGKATLTADESSSTAYMQLSSLASEDSAVYFCARRETTTVGRYYYAMDYWGQGTTVTVSSAAEPKSSDKTHTCPPCPAPELLGGPSVFLFPPKPKDTLMISRTPEVTCVVVDVSHEDPEVKFNWYVDGVEVHNAKTKPREEQYNSTYRVVSVLTVLHQDWLNGKEYKCKVSNKALPAPIEKTISKAKGQPREPQVYVYPPSRDELTKNQVSLTCLVKGFYPSDIAVEWESNGQPENNYKTTPPVLDSDGSFALVSKLTVDKSRWQQGNVFSCSVMHEALHNHYTQKSLSLSPGK
chain 2: not shown
notes: WT effector Fc; copies: 1 + 1
B1 was tested, and the Kd [1] was 600 nM, the Kd [2] was 470 nM and the Kd [3] was 2.12 nM.

B2: one-armed anti-CD19 antibody (v869: anti-CD19 BiTE scFv (VL-VH) on chain A, Fc only on chain B) (antibody)
chain 1: B1 chain 1 with V387T
chain 2: not shown
notes: also called anti-CD19 OAA; anti-CD19 one arm constructs
B2: no binding [4].

B3: v1666-213-A (bispecific antibody)
chain 1: not shown
chain 2: B1 chain 1 with L271A, L272A, D302S, Y388L, T403L, K429L, T431W, A442F, V444Y
B3: no binding (tested: 300 nM) [5].

B4: v875, bispecific anti-CD19 BiTE (VL-VH) scFv / anti-CD3 OKT3 (VL-VH) scFv on a heterodimeric IgG1 Fc (bispecific antibody)
chain 1: B1 chain 1 with V387T
chain 2: not shown
notes: Chain A/B is assigned by order only; copies: 1 + 1
In the case of B4, the Kd [6] is reported as 1000 nM, the Kd [1] is reported as 590 nM and the Kd [2] is reported as 430 nM. For the same binder, the Kd [7] was 4.7 nM, the binding result [8] was “no binding (tested: 100 nM)” and the “Bmax (OD450)” value [9] was 1.59 OD450. It also gave a Kd [9] of 21.4 nM and a Kd [10] of 19.1 nM.

B5: v1381, anti-CD19 BiTE (VL-VH) scFv / anti-CD3 BiTE (VH-VL) scFv heterodimeric Fc with N297A (bispecific antibody)
chain 1: B1 chain 1 with N334A
chain 2: not shown
notes: Fc knock-out N297A on both chains; copies: 1 + 1
B5: no binding (tested: FcγR injected up to 10,000 nM) [6]; no binding (tested: FcγR injected up to 10,000 nM) [1]; no binding (tested: FcγR injected up to 10,000 nM) [2]. It also gave a Bmax [3] of 13900 and a Kd [3] of 2.36 nM.

B6: v873, bispecific anti-CD19 BiTE (VL-VH) scFv / anti-CD3 BiTE (VH-VL) scFv on a heterodimeric IgG1 Fc (bispecific antibody)
chain 1: B1 chain 1 with V387T
chain 2: not shown
notes: chain A/B is assigned by order only; also called bispecific CD19-CD3(VH-VL-BiTE)
In the case of B6, the “EC50 (read off the curve)” value [11] is reported as roughly 3 nM, the binding result [8] is reported as “no binding (tested: 100 nM)” and the Kd [12] is reported as 2.7 nM.
